Data: PMC10499821

Target: Nsp3 ADRP (SARS-CoV-2) (UniProt P0DTD1)
Assay: fluorescence polarisation

B1: PARP10_(700–715) (peptide)
peptide: DGGTDGKAQLVVHSA
B1 showed a Kd of 300 µM.
